Data on 44 molecules can be found in PMC5454392, “Selective BET bromodomain inhibition as an antifungal therapeutic strategy” (Nature Communications, 2017).

The target in assay [1] is T1, CaBdf1 BD2 (GST-tagged, wild-type) (Candida albicans (strain SC5314 / ATCC …, UniProt Q5A4W8)).
T1 chain: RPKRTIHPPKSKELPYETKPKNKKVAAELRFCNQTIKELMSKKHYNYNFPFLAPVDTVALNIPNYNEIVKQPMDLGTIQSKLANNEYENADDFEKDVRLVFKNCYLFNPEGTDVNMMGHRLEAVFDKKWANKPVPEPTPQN
Kind of assay: histone peptide array (Active Motif MODified), 1 uM GST-tagged bromodomain, anti-GST detection, normalized mean intensity.

For assay [2], the target named is T2, CaBdf1 BD1 (GST-tagged, wild-type) (Candida albicans (strain SC5314 / ATCC …, UniProt Q5A4W8)).
T2 chain: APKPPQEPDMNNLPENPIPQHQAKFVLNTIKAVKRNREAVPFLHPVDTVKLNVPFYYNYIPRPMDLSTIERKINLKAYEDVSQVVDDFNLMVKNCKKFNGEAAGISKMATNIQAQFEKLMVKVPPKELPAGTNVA
The assay is described as above.

Square brackets hold non-standard residues; d marks the D form. Ends that are not written are not given here. Arg(Me2a) = CN(C)C(=N)NCCC[C@H](N)C(=O)O; Lys(Me3) = C[N+](C)(C)CCCC[C@H](N)C(=O)O; Arg(Me2s) = CN=C(NC)NCCC[C@H](N)C(=O)O; pT = C[C@@H](OP(=O)(O)O)[C@H](N)C(=O)O; pS = N[C@@H](COP(=O)(O)O)C(=O)O; Lys(Me) = CNCCCC[C@H](N)C(=O)O; Me2a = not defined here; me2a = not defined here

ART[Lys(Me3)]QTARKSTGGKAPRKQ: the results for the binding score in assay [1] and in assay [2] were 0.00148 and 0.00399, respectively.
For A[Arg(Me2s)]TK(Ac)QTA[Arg(Me2a)][Lys(Me)]STGGKAPRKQ, in that order: 0.00296 and 0.00834.
For ARTKQTA[Arg(Me2a)][Lys(Me)]S[pT]GGKAPRKQ, in that order: 0.00259 and 0.00471.
For PRKQLATKAARK(Ac)[pS]APATGG, in that order: 0.00148 and 0.0029.
Turning to PDPAKSAPAPKKG[pS]K(Ac)KAVT, the values for the binding score in assay [1] and in assay [2] were 0.145 and 0.0914, respectively.
For A[Arg(Me2s)]T[Lys(Me)]QTA[Arg(Me2a)][Lys(Me3)]STGGKAPRKQ the same measures were 0.00592 and 0.0058.
For ARTKQTARKSTGGKAPRKQ (A R T K Q T A R Kme2 S pT G G K A P R K Q), in that order: 0.00185 and 0.00544.
For SGRGKGGKGLGKGGAKRHR (S G Rme2s G Kac G G Kac G L G Kac G G A K R H R), in that order: 0.332 and 0.175.
With ARTKQTARKSTGGKAPRKQ (A R T Kac Q T A Rme2s Kme2 S T G G K A P R K Q), the binding score in assay [1] is 0.00296; in assay [2], 0.00363.
For PRKQLATKAAR(Me2s)KSAPATGG, in that order: 0.0037 and 0.00616.
For SGRGKGGKGLGKGGAKRHR (S G R G K G G Kac G L G K G G A K R H R) the same measures were 0.027 and 0.0344.
For ARTKQTARKSTGGKAPRKQ (A Rme2s T Kme1 Q T A Rme2s Kac S T G G K A P R K Q) the same measures were 0.00555 and 0.0344.
For the molecule ARTKQTARKSTGGKAPRKQ (A R T Kac Q T A Rme2a Kac S T G G K A P R K Q), the binding score came out at 0.0126 in assay [1] and 0.0464 in assay [2].
For ARTKQTARKSTGGKAPRKQ (A R T K Q T A R K pS T G G K A P R K Q) the same measures were 0.00074 and 0.00181.
On to ARTKQTARKSTGGKAPRKQ (A R T K Q T A Rme2s Kme2 S pT G G K A P R K Q), for which the values for the binding score in assay [1] and in assay [2] were 0.00259 and 0.00906, respectively.
In the case of PDPAK(Ac)SAPAPKKGSKKAVT, the figures for the binding score in assay [1] and in assay [2] were 0 and 0.00363, respectively.
For ARTKQTARKSTGGKAPRKQ (A Rme2s T Kac Q T A Rme2s Kme3 S T G G K A P R K Q) the same measures were 0.00555 and 0.00834.
For ARTKQTARKSTGGKAPRKQ (A Rme2s T Kac Q T A R Kme3 S T G G K A P R K Q) the same measures were 0.00259 and 0.00616.
For ARTK(Me)QTAR(me2s)K(Me)STGGKAPRKQ, in that order: 0.00592 and 0.00689.
On to ARTKQTARKSTGGKAPRKQ (A R T K Q T A Rme2a Kme3 pS pT G G K A P R K Q), for which the binding score was determined as 0.0037 in assay [1] and 0.00326 in assay [2].
For ARTKQTARKSTGGKAPRKQ (A Rme2s T Kac Q T A Rme2a Kac S T G G K A P R K Q) the same measures were 0.00851 and 0.0573.
For [pS]GRGK(Ac)QGGK(Ac)ARAKAKSRSS, in that order: 0.00925 and 0.0381.
For SGRGKQGGK(Ac)ARAKAKSRSS the same measures were 0.00814 and 0.0276.
Consider [pS]GRGKQGGKARAK(Ac)AKSRSS, for which the binding score came out at 0.02 in assay [1] and 0.0906 in assay [2].
PRKQLATKAAR(Me2a)K(Ac)[pS]APATGG (reading uncertain): the binding score in assay [1] is 0.00222; in assay [2], 0.0058.
For SGRGKGGKGLGKGGAKRHR (S G Rme2a G Kac G G K G L G K G G A K R H R) the same measures were 0.00703 and 0.0105.
AR(me2a)TK(me2)QTAR(me2a)K(Me)STGGKAPRKQ (reading uncertain): the figures for the binding score in assay [1] and in assay [2] were 0.00629 and 0.00363, respectively.
For SGRGK(Ac)QGGKARAK(Ac)AKSRSS the same measures were 0.0859 and 0.109.
For AR(me2s)TK(Me)QTARKSTGGKAPRKQ, in that order: 0.00037 and 0.00326.
For the molecule [pS]GRGKQGGK(Ac)ARAK(Ac)AKSRSS, the binding score in assay [1] amounted to 0.00592; in assay [2], 0.0642.
PDPAKSAPAPKKG[pS]KKAVT: the values for the binding score in assay [1] and in assay [2] were 0.00148 and 0.00326, respectively.
For ARTKQTARKSTGGKAPRKQ (A R T Kme2 Q T A Rme2s Kac S T G G K A P R K Q) the same measures were 0.00592 and 0.0305.
Regarding AR(Me2s)TK(Me)QTAR(Me2a)K(Me)STGGKAPRKQ (reading uncertain), the binding score came out at 0.00222 in assay [1] and 0.00435 in assay [2].
For SGRGKGGKGLGKGGAKRHR (S G Rme2a G K G G K G L G K G G A K R H R) the same measures were 0.0215 and 0.00906.
For ARTKQTARKSTGGKAPRKQ (A Rme2a T Kme3 Q T A Rme2a Kme3 S T G G K A P R K Q), in that order: 0.00333 and 0.00399.
For ARTKQTARKSTGGKAPRKQ (A R T K Q T A Rme2a Kme3 S pT G G K A P R K Q) the same measures were 0.00555 and 0.00653.
As for PRKQLATKAAR(Me2a)K(Me)[pS]APATGG (reading uncertain), the results for the binding score in assay [1] and in assay [2] were 0.00703 and 0.0029, respectively.
As for [pS]GRGKQGGK(Ac)ARAKAKSRSS, the binding score was 0.0137 in assay [1] and 0.0174 in assay [2].
For A[Arg(Me2a)][pT][Lys(Me3)]QTARKSTGGKAPRKQ, in that order: 0.00074 and 0.00725.
For ARTKQTARKSTGGKAPRKQ (A R T K Q T A R K pS T G G Kac A P R K Q) the same measures were 0.0107 and 0.0301.
Regarding SGRGKGGKGLGKGGAKRHR (S G Rme2a G K G G Kac G L G K G G A K R H R), the binding score in assay [1] stood at 0.0074; in assay [2], 0.0218.
For PRKQLATKAARKSAPATGG (P R K Q L A T K A A Rme2a Kme3 S A P A T G G), in that order: 0.00703 and 0.00363.
With PRKQLATKAARK(Me2)[pS]APATGG, the binding score in assay [1] came out at 0.00074; in assay [2] it was 0.0029.
For SGRGKGGKGLGKGGAKRHR (S G Rme2a G Kac G G Kac G L G Kac G G A K R H R), in that order: 0.375 and 0.236.
